{
  "source": "the nanobody polyreactivity screen of Harvey et al. (2022)",
  "data": [
    {"assay": "yeast display, Sf9 membrane polyspecificity reagent, FACS + sequencing; frameworks hold sequencing errors", "how_it_was_run": "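Sorting gates, low and high (top ~1%), were placed on anti-HA fluorescence to track expression and on streptavidin fluorescence to track reagent binding. A clone's polyreactivity label is taken from the gate it came out of. The reagent was 10% biotinylated, detergent-solubilized Sf9 membrane, applied for 1 hour at 4 °C to galactose-induced yeast display cells.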", "values": [
      {"sequence": "QVQLVESGGGLVQAGGSLRLSCAASGSIFDSNAKGWYRQAPGKERELVAAITGSGSTNYADSVKGRFTFSRDNAKNTVYLQMNSLKPEDTAVYYCNAQAPYTEFDYWGQGTQVTVSS", "polyreactivity (PSR sort gate)": "low polyreactivity"},
      {"sequence": "QVQLVESGGGLVQAGGSLRLSCAASGSIFDSNAMGWYRQAPGKERELVAAIDDSGATTYYADSVKGRFTISPDNAKNTVYLQLNSLKPEDTAVYYCAAETYTGSLAYYREYYYWGQGTQVTVSS", "polyreactivity (PSR sort gate)": "low polyreactivity"},
      {"sequence": "QVQLVESGGGLVQAGGSLRLSCAASGSIFDSNNMVWYRQAPGKERELVAGISTGGSTNYADSVKGRFTISRDNAKNTVYLQMNSLKPEDTAVYYCNADLGSSYDWGQGTQVTVSS", "polyreactivity (PSR sort gate)": "low polyreactivity"},
      {"sequence": "QVQLVESGGGLVQAGGSLRLSCAASGSIFDSYAMGWYRQAPGKERELVASISRRGGTTYYADSVKGRFTISRDNAKNTGYLQMNSLKPEDTAVYYCAKVGSLYQPSRYDYWGQGTQVTVTS", "polyreactivity (PSR sort gate)": "high polyreactivity"},
      {"sequence": "QVQLVESGGGLVQAGGSLRLSCAASGSIFDTYAMGWYRQAPGKEREVVAAITWSGSSTYYADSVKGRFTISRDNAKNTVYLQMNSLKPEDTAVYYCAAEVSGKYFLFDYWGQGTQVTVSS", "polyreactivity (PSR sort gate)": "high polyreactivity"},
      {"sequence": "QVQLVESGGGLVQAGGSLRLSCAASGSIFDVNAMGWYRQAPGKERELVAAISDSGGSTFYADSVKGRFTISRDNAKNTVYLQMNTLKPEDTGVYYCNTEDFFNVPEMDSWGQGTQVTVSS", "polyreactivity (PSR sort gate)": "low polyreactivity"},
      {"sequence": "QVQLVESGGGLVQAGGSLRLSCAASGSIFDVYAMGWYRQAPGKERELVAAINGGGSTYYADSVKGRFTISRDNAKNTVYLQMNSLKPEDTAVYYCAADRYYYAYRYYPSGYWGQGTQVTVSS", "polyreactivity (PSR sort gate)": "low polyreactivity"},
      {"sequence": "QVQLVESGGGLVQAGGSLRLSCAASGSIFDVYAMGWYRQAPGKERELVAAIRTRGGSTYYADSVKGRFTISRDNAKNTVYLQMNSLKPEDTAVYYCAAGGETVIPWFDDYYWGQGTQVTVSS", "polyreactivity (PSR sort gate)": "low polyreactivity"},
      {"sequence": "QVQLVESGGGLVQAGGSLRLSCAASGSIFDVYAMGWYRQAPGKERELVAGISRSGGSTYYADSVKGRFTISRDNAKNTVYLQMNSLKPEDTAVYYCAARYTYYRGRYDYWGQGTQVTVSS", "polyreactivity (PSR sort gate)": "low polyreactivity"},
      {"sequence": "QVQLVESGGGLVQAGGSLRLSCAASGSIFDVYAMGWYRQAPGKERELVATISNSAGSTYYADSVKGRFTISRDNAKKTVYLQMNSLKPEDTAVYYCAAVVLYFEEYDYWGQGTQVTVSS", "polyreactivity (PSR sort gate)": "low polyreactivity"},
      {"sequence": "QVQLVESGGGLVQAGGSLRLSCAASGSIFDVYAMGWYRQAPGKERELVATMSNSAGSTYYADSVKGRFTISRDNAKYTVYLQMNSLKPEDTAVYYCAAVVVYFDEYDYWGQGTQVTVSS", "polyreactivity (PSR sort gate)": "low polyreactivity"},
      {"sequence": "QVQLVESGGGLVQAGGSLRLSCAASGSIFDVYTMGWDREAPGKERELVAAINTGGGSTYYADSVKGRFTISRDNAKNTVYLQMNSLKPEDTAVYYCAASVYHYGPLYYWGQGTQVTVSS", "polyreactivity (PSR sort gate)": "low polyreactivity"},
      {"sequence": "QVQLVESGGGLVQAGGSLRLSCAASGSIFDWYDMGWYRQAPRKEGELVAAISSGDSSYYADSVKGRFTISRDNAKNTVYFQIISLKPEDTAVYFCAAVTKLSGIRYNYWGQGTQLTVSS", "polyreactivity (PSR sort gate)": "low polyreactivity"},
      {"sequence": "QVQLVESGGGLVQAGGSLRLSCAASGSIFDYNAMGWYREAAGKEREFVASITYSGGSTNYADSVKGRFTISRDNAKNTVYLQMNSLKPEDTAVYYCSKTIGIVWIYYPGARYEDWGQGTQVTVSS", "polyreactivity (PSR sort gate)": "low polyreactivity"},
      {"sequence": "QVQLVESGGGLVQAGGSLRLSCAASGSIFDYNAMGWYRQATGKERELVAAISSDGSTYYADSVKGRFTISRDNAKNSVYLQMNSLKPEDTAVYYCAADSVYSWSDYWGQGTQVTVSS", "polyreactivity (PSR sort gate)": "low polyreactivity"},
      {"sequence": "QVQLVESGGGLVQAGGSLRLSCAASGSIFDYNCMGWYRQAPGKESELVATITLSTARTYYADSVKGRFTISRDNAKNTVYLQMNRLKPEDTAVYYCATRYPKFRRRNYWGQGTQVTVSS", "polyreactivity (PSR sort gate)": "high polyreactivity"},
      {"sequence": "QVQLVESGGGLVQAGGSLRLSCAASGSIFDYYTMGWYRQAPGKERELVASITQSGGSTYYADSVKGRFTISRDNAKNTVYLQMNSLIPEDTAVYYCAADFSIVKMDYWGQGTQVTVSS", "polyreactivity (PSR sort gate)": "low polyreactivity"},
      {"sequence": "QVQLVESGGGLVQAGGSLRLSCAASGSIFEAYAMGWYRQAPGKERELVAAITQSGGSTYYADSVKGRFTISRDNAKNTVYLQMNSLKPEDTAVYYCAADFKYRGPSGDYDYWGQGTQVTVSS", "polyreactivity (PSR sort gate)": "low polyreactivity"},
      {"sequence": "QVQLVESGGGLVQAGGSLRLSCAASGSIFEENAMGWYRQAPGKERELVAAITIGGRTNYADSVKGRFTISRDNAKNTVYLQMNSLKPEDTAVYYCAADLSSNKFWRFWTRYYYWGQGTQVTVSS", "polyreactivity (PSR sort gate)": "low polyreactivity"},
      {"sequence": "QVQLVESGGGLVQAGGSLRLSCAASGSIFEGNAMGWSRQAPGKERELVAAITGRGGSTYYADSVKGRFTISRDNAKNTVYLQMNSLKPEDTAVYYCAARVRRLSSIIYYYWGQGTQVTVSS", "polyreactivity (PSR sort gate)": "high polyreactivity"},
      {"sequence": "QVQLVESGGGLVQAGGSLRLSCAASGSIFEGNAMGWYRQAPGKERELVAAISRRGGRTYYADSVKGRFTISRDNAKNTVYLQMNSLKPEDTAVYYCNALYFRDGRYQTYSDKFDYWGQGTQVTVSS", "polyreactivity (PSR sort gate)": "high polyreactivity"},
      {"sequence": "QVQLVESGGGLVQAGGSLRLSCAASGSIFEHNSMGWYSQAPGKERELGAAITISGGGTYYADSVKGRFTISRDNAKNTVYLQMNSLKPEDTAVYYCNRDKPGLVFTSYNYSSSYDYWGPGTQVTVSS", "polyreactivity (PSR sort gate)": "low polyreactivity"},
      {"sequence": "QVQLVESGGGLVQAGGSLRLSCAASGSIFEKNAMGWYRQEPGKEWELFAAISSSGGRTNYADSVKGRFTISRDNAKNTVYLHMNSLKPEDTAVYYCAAYRRGHRYTGYEYWGQGTQVTVSS", "polyreactivity (PSR sort gate)": "high polyreactivity"},
      {"sequence": "QVQLVESGGGLVQAGGSLRLSCAASGSIFEKYAMGWYRQAPGKERELVAAISRGTNTKYADSVKGRFTISRDNAKNTVYLQMNSLKPEDTAVYNGAARYNTYRTRIYSMDYWGQGTQVTVSS", "polyreactivity (PSR sort gate)": "high polyreactivity"},
      {"sequence": "QVQLVESGGGLVQAGGSLRLSCAASGSIFELNAMGWYRQAPGKERELVAAITSSGSSTYYADSVKGRFTISRDNAKNTVYLQMNSLKPEDTAVYYCFRPHDYWGQGTQVTVTS", "polyreactivity (PSR sort gate)": "low polyreactivity"},
      {"sequence": "QVQLVESGGGLVQAGGSLRLSCAASGSIFEPNAMGWYRQAPGKERELVASITSGGTTYADSVKGRFTISRDNAKNTVYLQMNSLKPEDTAVYYCNARVKAFFDPSQYLYGHDYWGQGTQVTVSS", "polyreactivity (PSR sort gate)": "low polyreactivity"},
      {"sequence": "QVQLVESGGGLVQAGGSLRLSCAASGSIFEPYAMGWYRQAPGKERELVAAISSGTSTYYADSVKGRFTISRDNAKNTVYLQLNSLKPEDTAVYYCAAEEQIPWTNNAKYYYWGQGTQVTVSS", "polyreactivity (PSR sort gate)": "low polyreactivity"},
      {"sequence": "QVQLVESGGGLVQAGGSLRLSCAASGSIFESNAMGWYRQAPGKEREFVAAIDQNDGSTNYADSVKGRFTISRDNAKNTVYLQMNSLKPEDTAVYYCAKYWGYLGYYEFDYWGQGTQVTVSS", "polyreactivity (PSR sort gate)": "low polyreactivity"},
      {"sequence": "QVQLVESGGGLVQAGGSLRLSCAASGSIFESNGMGWYRPAPGKERELVASISNGDITYYADSVKGRFTISRDNAKNTVYLQMISVKPEYTAVYYCAATLYRNYVIFRYDYWGQGTQLTVSS", "polyreactivity (PSR sort gate)": "low polyreactivity"},
      {"sequence": "QVQLVESGGGLVQAGGSLRLSCAASGSIFEVYAMGWYRQAPGKERELVAAIDYSDGTTYYADSVKGRFTISRDNAKNTVYLQMNSLKPEDTAGYYCAADFPGQHYDYWGQGTQVTVSS", "polyreactivity (PSR sort gate)": "low polyreactivity"}
    ]}
  ]
}
